Experimental data published in patent US20250043002A1 (Regeneron, published 2025).

Experiments:
[1] = target: T1, human CD28 on cells (endogenous on Jurkat/NFkB-Luc cells; human primary CD4+ T cells) (human, UniProt P10747 19-220); assay: cell-based or functional assay
[2] = target: human CD28 expressed with a C-terminal murine Fc tag (hCD28.mFc) (human); assay: SPR Biacore 25 C, hCD28.mFc captured by anti-mFc, antibody injected
[3] = target: T1, human CD28 on cells (endogenous on …); assay: flow cytometry, Jurkat/NFkB-Luc cells (endogenous CD28)
[4] = target: T1, human CD28 on cells (endogenous on …); assay: cell-based or functional assay; remark: listed apart in the source
[5] = target: T2, human PD-L1 expressed on cells (HEK293/hCD20/hPSMA/hPD-L1; WSU-DLCL2/hPD-L1) (human, UniProt Q9NZQ7 19-290); assay: flow cytometry, HEK293/hCD20/hPSMA/hPD-L1 cells
T2 construct: whole, on cells; also called human programmed death ligand-1

[6] = target: T3, hPD-L1-mFc: hPD-L1 extracellular domain (amino acids F19-T239) expressed with the Fc portion of mouse IgG2a … (human; mouse, UniProt Q9NZQ7 19-239); assay: blocking ELISA, 0.7 nM hPD-L1-mFc on plate-coated hPD1-hFc
T3 construct: range 19-239; not shown: Fc portion of mouse IgG2a, amino acids E98-K330
T3 sequence (Q9NZQ7 19-239 limits assumed): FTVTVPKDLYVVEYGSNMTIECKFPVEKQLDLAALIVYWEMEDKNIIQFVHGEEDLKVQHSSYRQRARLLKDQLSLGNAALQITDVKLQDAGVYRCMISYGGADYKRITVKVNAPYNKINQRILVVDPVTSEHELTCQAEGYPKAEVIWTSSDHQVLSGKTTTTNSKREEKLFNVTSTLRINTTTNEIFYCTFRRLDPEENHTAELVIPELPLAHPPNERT

T2 sequence (Q9NZQ7 19-290): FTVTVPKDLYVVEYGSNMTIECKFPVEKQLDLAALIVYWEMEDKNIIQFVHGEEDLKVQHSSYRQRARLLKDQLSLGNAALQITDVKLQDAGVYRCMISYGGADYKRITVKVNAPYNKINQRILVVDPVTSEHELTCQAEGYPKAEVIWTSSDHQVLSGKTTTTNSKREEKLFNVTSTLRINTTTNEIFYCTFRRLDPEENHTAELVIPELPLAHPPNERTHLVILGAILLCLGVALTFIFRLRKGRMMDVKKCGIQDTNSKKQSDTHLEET

Row | IL2 release MAX (RLU), CD4+ T cells + HEK293/hCD20/hPSMA [1] [RLU] | IL2 release MAX (RLU), CD4+ T cells + HEK293/hCD20/hPSMA + CD20×CD3 [1] [RLU] | IL2 release MAX (RLU), CD4+ T cells + HEK293/hCD20/hPSMA/hPD-L1 [1] [RLU] | IL2 release MAX (RLU), CD4+ T cells + HEK293/hCD20/hPSMA/hPD-L1 + CD20×CD3 [1] [RLU] | EC50 [3] [nM] | Fold Change (max MFI over secondary antibody alone) [3] [fold] | Max gMFI [3] [gMFI] | NFkB-luciferase EC50, Jurkat/NFkB-Luc + HEK293/hCD20/hPSMA/hPD-L1 + CD20×CD3 [4] [nM] | NFkB-luciferase MAX (RLU), Jurkat/NFkB-Luc + HEK293/hCD20/hPSMA [4] [RLU] | NFkB-luciferase MAX (RLU), Jurkat/NFkB-Luc + HEK293/hCD20/hPSMA + CD20×CD3 [4] [RLU] | NFkB-luciferase MAX (RLU), Jurkat/NFkB-Luc + HEK293/hCD20/hPSMA/hPD-L1 [4] [RLU] | NFkB-luciferase MAX (RLU), Jurkat/NFkB-Luc + HEK293/hCD20/hPSMA/hPD-L1 + CD20×CD3 [4] [RLU] | IL2 release EC50, CD4+ T cells + HEK293/hCD20/hPSMA + CD20×CD3 [1] [nM] | Fold Change (max MFI over secondary antibody alone) [5] [fold] | Max gMFI [5] [gMFI] | binding result [5] | % Blocking at 100 nM mAb [6] [%] | Binder | other results
1 | 5480 | 33700 | 2870 | 165000 | 7.5 | 90.4 | 28000 | 0.028 | 11400 | 425000 | 16700 | 3.6e+06 | – | – | – | – | – | REGN6194 (bispecific antibody, human IgG4 S228P, kappa, also called PD-L1×CD28; anti-PD-L1 × anti-CD28 bispecific antibody) heavy 1: QVQLVQSGTEVKKPGASVKVSCKASGYTFTAYYMHWVRQAPGQGLDWMGWISPNSGFTNYAQKFQGRVTMTRDTSINTFYMELSGLRSDDTAVYYCAREGSTHHNSFDPWGQGTLVTVSSASTKGPSVFPLAPCSRSTSESTAALGCLVKDYFPEPVTVSWNSGALTSGVHTFPAVLQSSGLYSLSSVVTVPSSSLGTKTYTCNVDHKPSNTKVDKRVESKYGPPCPPCPAPPVAGPSVFLFPPKPKDTLMISRTPEVTCVVVDVSQEDPEVQFNWYVDGVEVHNAKTKPREEQFNSTYRVVSVLTVLHQDWLNGKEYKCKVSNKGLPSSIEKTISKAKGQPREPQVYTLPPSQEEMTKNQVSLTCLVKGFYPSDIAVEWESNGQPENNYKTTPPVLDSDGSFFLYSRLTVDKSRWQEGNVFSCSVMHEALHNHYTQKSLSLSLGK heavy 2: QVQLQESGPGLVKPSETLSLTCTVSGGSISSYYWSWIRQPPGKGLEWIGYIYYSGITHYNPSLKSRVTISVDTSKIQFSLKLSSVTAADTAVYYCARWGVRRDYYYYGMDVWGQGTTVTVSSASTKGPSVFPLAPCSRSTSESTAALGCLVKDYFPEPVTVSWNSGALTSGVHTFPAVLQSSGLYSLSSVVTVPSSSLGTKTYTCNVDHKPSNTKVDKRVESKYGPPCPPCPAPPVAGPSVFLFPPKPKDTLMISRTPEVTCVVVDVSQEDPEVQFNWYVDGVEVHNAKTKPREEQFNSTYRVVSVLTVLHQDWLNGKEYKCKVSNKGLPSSIEKTISKAKGQPREPQVYTLPPSQEEMTKNQVSLTCLVKGFYPSDIAVEWESNGQPENNYKTTPPVLDSDGSFFLYSRLTVDKSRWQEGNVFSCSVMHEALHNRFTQKSLSLSPGK light: not shown | 90 nM mAb Bind (RU) [2]: 39.4 RU; Kd [2]: 24.5 nM; koff [2]: 0.00326 s⁻¹; kon [2]: 133000 M⁻¹ s⁻¹; t1/2 [2]: 3.5 min
2 | 3040 | 25600 | 2860 | 3620 | 9.3 | 60.3 | 25000 | – | – | – | – | – | 9.54 | 1.2 | 1800 | no binding | 1 | mAb14216 (antibody, V domains shown, Bivalent parental antibody; also called parental bivalent anti-CD28 antibody; CD28 bivalent control antibody) VH: EVQLVESGGGLVQPGGSLRLSCAASGFTFSRNNMHWVRQAPGKGLEYVSGISSNGGRTYYADSVKGRFTISRDNSKNTLYLQMGGLRAADMAVYFCTRDDELLSFDYWGQGTLVTVSS VL: not shown | –
3 | 2910 | 64400 | 2860 | 38800 | 0.73 | 101 | 43000 | 0.0875 | 73200 | 649000 | 60800 | 596000 | 0.116 | – | – | – | – | mAb14226 (antibody, V domains shown, Bivalent parental antibody; also called parental bivalent anti-CD28 antibody; CD28 bivalent control antibody) VH: QVQLQESGPGLVKPSETLSLTCTVSGGSISSYYWSWIRQPPGKGLEWIGYIYYSGITHYNPSLKSRVTISVDTSKIQFSLKLSSVTAADTAVYYCARWGVRRDYYYYGMDVWGQGTTVTVSS VL: not shown | IL2 release EC50, CD4+ T cells + HEK293/hCD20/hPSMA/hPD-L1 + CD20×CD3 [1]: 2.67 nM; NFkB-luciferase EC50, Jurkat/NFkB-Luc + HEK293/hCD20/hPSMA [4]: 5.69 nM; NFkB-luciferase EC50, Jurkat/NFkB-Luc + HEK293/hCD20/hPSMA + CD20×CD3 [4]: 0.0514 nM
4 | 3110 | 33600 | 3070 | 4720 | 21 | 42.5 | 18000 | – | – | – | – | – | 24.9 | 3 | 4700 | no binding | 6 | mAb14193 (antibody, V domains shown, Bivalent parental antibody; also called parental bivalent anti-CD28 antibody; CD28 bivalent control antibody) VH: EVQLVESGGGLVQPGGSLRLSCAASGFTFSTYAMTWVRQAPGKGLEWVSFISGSGDNTYYADSVKGRFTISRDNSKNTLYLQMNSLRADDSAIYHCAKDSGYCSSGGCSLYFYYGMDVWGQGTTVTVSS VL: not shown | –
